Laboratory results: publication PMC3635990, “Vpu Binds Directly to Tetherin and Displaces It from Nascent Virions” (PLoS Pathogens, 2013)

Biological target: the molecule itself
Assay: cross-linking; unfractionated whole cell lysates of the oxidised, co-transfected 293T cells of Figure 1B; non-reducing SDS-PAGE (Bio-Rad), Western blot; monomer to dimer

Protein	stoichiometry N
Tetherin^CC/SS-I46C-HA (natural protein, Tetherin (Bst2/CD317/HM1.24), human; also called TetherinI46C; Teth^CC/SS-I46C-HA; source: HEK293T, co-transfected, in cells and lysate) MASTSYDYSRVPMEDGDKRSKLLLGIGILVLLIIVILGVPLIIFTCKANSEACRDGLRAVMECRNVTHLLQQELTEAQKGFQDVEAQAATCNHTVMALMASLDAEKAQGQKKVEELEGEITTLNHKLQDASAEVERLRRENQVLSVRIADKKYYPSSQDSS	2
Tetherin^CC/SS-T45C-HA (natural protein, Tetherin (Bst2/CD317/HM1.24), human; also called TetherinT45C; source: HEK293T, co-transfected, in cells and lysate) MASTSYDYSRVPMEDGDKRSKLLLGIGILVLLIIVILGVPLIIFCIKANSEACRDGLRAVMECRNVTHLLQQELTEAQKGFQDVEAQAATCNHTVMALMASLDAEKAQGQKKVEELEGEITTLNHKLQDASAEVERLRRENQVLSVRIADKKYYPSSQDSS	2
